Sequences and labels used below:
B1: mouse His-PABP-RRM1–4 (amino acids 1–375) (domain or fragment, UniProt P29341 1-375, looked up)
chain: MNPSAPSYPMASLYVGDLHPDVTEAMLYEKFSPAGPILSIRVCRDMITRRSLGYAYVNFQQPADAERALDTMNFDVIKGKPVRIMWSQRDPSLRKSGVGNIFIKNLDKSIDNKALYDTFSAFGNILSCKVVCDENGSKGYGFVHFETQEAAERAIEKMNGMLLNDRKVFVGRFKSRKEREAELGARAKEFTNVYIKNFGEDMDDERLKELFGKFGPALSVKVMTDESGKSKGFGFVSFERHEDAQKAVDEMNGKELNGKQIYVGRAQKKVERQTELKRKFEQMKQDRITRYQGVNLYVKNLDDGIDDERLRKEFSPFGTITSAKVMMEGGRSKGFGFVCFSSPEEATKAVTEMNGRIVATKPLYVALAQRKEERQ
notes: Vector was a gift from Lorna Waters; source: bacterially expressed, purified (Ni-NTA)

In test [1] the target is T1, GST-Pdcd4 (full-length human Pdcd4 fused to GST) (human, UniProt Q53EL6 1-469).
T1 construct: programmed cell death 4 (Pdcd4), human, full length; also called GST-Pdcd4-wt; pGex-6P2-hPdcd4wt; source: purified
T1 sequence (looked up): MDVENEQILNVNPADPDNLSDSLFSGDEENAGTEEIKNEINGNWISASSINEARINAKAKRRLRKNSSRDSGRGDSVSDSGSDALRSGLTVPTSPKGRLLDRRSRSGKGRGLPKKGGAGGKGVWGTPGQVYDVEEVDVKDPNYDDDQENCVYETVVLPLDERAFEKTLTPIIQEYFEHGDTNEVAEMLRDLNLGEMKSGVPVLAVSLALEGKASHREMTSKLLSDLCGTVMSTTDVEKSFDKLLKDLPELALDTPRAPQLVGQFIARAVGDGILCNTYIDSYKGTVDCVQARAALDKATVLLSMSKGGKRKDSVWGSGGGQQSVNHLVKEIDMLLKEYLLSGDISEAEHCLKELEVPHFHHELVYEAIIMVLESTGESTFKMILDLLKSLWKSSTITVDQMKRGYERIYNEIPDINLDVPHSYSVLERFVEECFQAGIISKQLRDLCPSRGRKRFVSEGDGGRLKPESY
In words: pull-down; GST fusion protein-loaded sepharose beads incubated with purified, bacterially expressed His-PABP-RRM1–4; western blotting with PABP antibodies or Coomassie staining; also in the absence or presence of 0.5 μg/ml RNase A. As to conditions: both partners purified.

For test [2], the target named is B1. The test is described as above. As to conditions: both partners purified.

As to B1, the binding result in test [1] was “binds”.

B2: GST-Pdcd4-RBDstop (only the N-terminal RNA-binding domain of human Pdcd4) (domain or fragment, UniProt Q53EL6 1-154, looked up)
chain: MDVENEQILNVNPADPDNLSDSLFSGDEENAGTEEIKNEINGNWISASSINEARINAKAKRRLRKNSSRDSGRGDSVSDSGSDALRSGLTVPTSPKGRLLDRRSRSGKGRGLPKKGGAGGKGVWGTPGQVYDVEEVDVKDPNYDDDQENCVYET
notes: translation stop codon introduced at amino acid position 155; The last residue 154 follows from the stop codon at position 155; also called pGex-6P2-hPdcd4-RBDstop; source: purified
In the case of B2, the binding result in test [2] is “binds”.

The values are drawn from publication PMC4176178, “An evolutionarily conserved interaction of tumor suppressor protein Pdcd4 with the poly(A)-binding protein contributes to translation suppression by Pdcd4” (Nucleic Acids Research, 2014).
